Test results as given in article doi:10.1101/089938v2.

Tests used:
[1] = substrate: C[C@@H](N)C(=O)O; assay: racemization assay, HPLC of derivatized L- and D-Ala; type: biochemical, Streptomyces coelicolor; settings: D- to L-Ala direction
[2] = substrate: C[C@H](N)C(=O)O; assay: as above; type: biochemical, Streptomyces coelicolor; settings: L- to D-Ala direction

B1: AlrSco (alanine racemase from Streptomyces coelicolor A3(2), SCO4745) (Streptomyces coelicolor A3(2)) (protein)
chain: MSETTARRDADAVLRARAEIDLAALRANVRALRERAPGAALMAVVKADAYGHGAIPCARAAVAAGATWLGTATPQEALALRAAEPGLPDDVRIMCWLWTPGGPWREAVEARLDVSVSAMWAMEEVTGAARAAGVPARVQLKADTGLGRGGCQPGADWERLVGAALRAEEEGLLRVTGLWSHFACADEPGHPSIAAQLTRFREMTAYAEQRGLRPEVRHIANSPATLTLPDAHFDLVRPGIAMYGVSPSPEIGTPADFGLRPVMTLAASLALVKQVPGGHGVSYGHHYTTPGETTLGLVPLGYADGIPRHASSSGPVLVDGKWRTVAGRIAMDQFVVDLGGDRPEPGAEAVLFGPGDRGEPTAEDWAQAAGTIAYEIVTRIGSRVPRVYVNE
[1]
  Km: 8.9 mM
[2]
  Km: 6.3 mM
